# From patent US20250277013A1 (published 2025)
# B1: PTPRZ1(1814-1822)-specific TCR (TCR, V domains shown)
# Valpha: AQSVTQLDSQVPVFEEAPVELRCNYSSSVSVYLFWYVQYPNQGLQLLLKYLSGSTLVKGINGFEAEFNKSQTSFHLRKPSVHISDTAEYFCAVSDRGAGNMLTFGGGTRLMVKP
# Vbeta: GAGVSQSPSNKVTEKGKDVELRCDPISGHTALYWYRQSLGQGLEFLIYFQGNSAPDKSGLPSDRFSAERTGGSVSTLTIQRTQQEDSAVYLCASSLGLAGGLAGELFFGEGSRLTVL
# B2: NLGN4X(131-139)-specific TCR (TCR, V domains shown)
# Valpha: RKEVEQDPGPFNVPEGATVAFNCTYSNSASQSFFWYRQDCRKEPKLLMSVYSSGNEDGRFTAQLNRASQYISLLIRDSKLSDSATYLCVVTDSGNTGKLIFGQGTTLQVKP
# Vbeta: GAVVSQHPSWVICKSGTSVKIECRSLDFQATTMFWYRQFPKQSLMLMATSNEGSKATYEQGVEKDKFLINHASLTLSTLTVTSAHPEDSSFYICSARVDYNEQFFGPGTRLTVL
# Legend:
# [1] = target: T1, Protein Tyrosine Phosphatase Receptor Type Z1 (PTPRZ1) peptide on HLA-A*02:01 (human); assay: multimer staining
# T1 peptide: MIWEHNVEV
# [2] = target: T2, Neuroligin-4, X-linked (NLGN4X) peptide on HLA-A*02:01 (human); assay: multimer staining
# T2 peptide: NLDTLMTYV
Binder,binding result [1],binding result [2]
B1,recognises,
B2,,recognises
